We go through four substances from PMC3202462.

The target of test [1] is GST fusion of the intracellular domain of the GABAAR α5 subunit. Briefly: far-Western, overlay or dot blot.
Test [2] concerns the target GST fusion of the intracellular loop of the GABAAR α2 subunit. Put plainly: far-Western, overlay or dot blot.
The target in a further test is GST-α1 T375A (mouse) (UniProt P62812). Put plainly: far-Western, overlay or dot blot.
For the next test, the target named is GST-α1 T375D (mouse) (UniProt P62812). Briefly: far-Western, overlay or dot blot.
The next test has as its target GST-α1 T375E (mouse) (UniProt P62812). Put plainly: far-Western, overlay or dot blot.
Test [3] concerns the target E-domain of gephyrin (residues 309-750, P1 variant). Briefly: ITC. A general note: ITC needs no label: the signal is the heat of the interaction.

As to “35S-methionine-labelled gephyrin, P1 isoform (natural protein)”, the gephyrin binding, % of control is 12.9 % of control in test [1] and 109 % of control with GST-α1 T375A (mouse). In addition, in test [2], the gephyrin binding, % of GST-α1 was 43.7 % of GST-α1. Moreover, the values for the gephyrin binding normalised to GST-α1 (100%) with GST-α1 T375D (mouse) and with GST-α1 T375E (mouse) were 68.9% and 62.5%, respectively.
In general, Kd refers to a measure of binding affinity in units of concentration. Read a low Kd as higher affinity. As a reminder, the stoichiometry N is a count of units in the complex or per binding partner. In the case of “6-His-tagged GABAAR α1 T375A cytoplasmic loop (domain or fragment)”, in test [3], the equilibrium dissociation constant (Kd) turned out to be 36 µM, the dH is -15 kcal/mol and the stoichiometry N came out at 0.64.
In test [3], “6-His-tagged GABAAR α1 cytoplasmic loop (M3-M4), wild type (domain or fragment)” had a dissociation constant (Kd) of 17 µM and a stoichiometry N of 0.62.
In the same order, the values of “6-His-tagged GABAAR α1 T375E cytoplasmic loop (domain or fragment)” are 183 µM and 0.69.
